Measurements from the supplement of paper PMC11246515.
± gives the standard deviation of the averaged measurements.

Assay: total protein half-life in vivo (active degradation + dilution); higher = more stable protein
[1] = E. coli NCM3722 delta-clpP delta-lon delta-hslV, growth: N-lim chemostat, doubling time 6 h
[2] = E. coli NCM3722 delta-lon, growth: N-lim chemostat, doubling time 6 h
[3] = E. coli NCM3722 delta-smpB, growth: N-lim chemostat, doubling time 6 h
[4] = wild type E. coli NCM3722, growth: N-lim chemostat, doubling time 6 h
[5] = wild type E. coli NCM3722, growth: N-lim chemostat, doubling time 12 h
[6] = wild type E. coli NCM3722, growth: P-lim chemostat, doubling time 6 h
[7] = wild type E. coli NCM3722, growth: P-lim chemostat, doubling time 12 h
[8] = E. coli NCM3722 delta-clpP, growth: N-lim chemostat, doubling time 6 h
[9] = E. coli NCM3722 delta-hslV, growth: N-lim chemostat, doubling time 6 h
[10] = wild type E. coli NCM3722, growth: C-lim chemostat, doubling time 3 h
[11] = wild type E. coli NCM3722, growth: C-lim chemostat, doubling time 6 h
[12] = wild type E. coli NCM3722, growth: C-lim chemostat, doubling time 12 h

| Sequence | total protein half-life in vivo [1] | total protein half-life in vivo [2] | total protein half-life in vivo [3] | total protein half-life in vivo [4] | total protein half-life in vivo [5] | total protein half-life in vivo [6] | total protein half-life in vivo [7] | total protein half-life in vivo [8] | total protein half-life in vivo [9] | total protein half-life in vivo [10] | total protein half-life in vivo [11] | total protein half-life in vivo [12] |
| --- | --- | --- | --- | --- | --- | --- | --- | --- | --- | --- | --- | --- |
| MTVQDYLLKFRKISSLESLEKLYDHLNYTLTDDQELINMYRAADHRRAELVSGGRLFDLGQVPKSVWHYVQ | 6.59 ± 0.11 h | 5.67 ± 0.55 h | 4.11 ± 0.46 h | 3.59 h | 6.7 h | 2.63 h | 6.54 ± 0.37 h |  |  |  |  |  |
| MRLTSKGRYAVTAMLDVALNSEAGPVPLADISERQGISLSYLEQLFSRLRKNGLVSSVRGPGGGYLLGKDASSIAVGEVISAVDESVDATRCQGKGGCQGGDKCLTHALWRDLSDRLTGFLNNITLGELVNNQEVLDVSGRQHTHDAPRTRTQDAIDVKLRA [P0AGK8] | 5.43 ± 0.76 h | 1.43 ± 0.34 h | 1.04 ± 0.058 h | 1.057 ± 0.0037 h | 1.37 ± 0.1 h | 1.53 ± 0.5 h | 2.18 ± 0.6 h | 2.85 ± 0.1 h | 1.38 ± 0.36 h | 1.22 ± 0.076 h | 1.76 ± 0.058 h | 2.04 ± 0.57 h |
| MALNTPQITPTKKITVRAIGEELPRGDYQRCPQCDMLFSLPEINSHQSAYCPRCQAKIRDGRDWSLTRLAAMAFTMLLLMPFAWGEPLLHIWLLGIRIDANVMQGIWQMTKQGDAITGSMVFFCVIGAPLILVTSIAYLWFGNRLGMNLRPVLLMLERLKEWVMLDIYLVGIGVASIKVQDYAHIQAGVGLFSFVALVILTTVTLSHLNVEELWERFYPQRPATRRDEKLRVCLGCHFTGYPDQRGRCPRCHIPLRLRRRHSLQKCWAALLASIVLLLPANLLPISIIYLNGGRQEDTILSGIMSLASSNIAVAGIVFIASILVPFTKVIVMFTLLLSIHFKCQQGLRTRILLLRMVTWIGRWSMLDLFVISLTMSLINRDQILAFTMGPAAFYFGAAVILTILAVEWLDSRLLWDAHESGNARFDD [P0AD03] |  | 4.34 h | 4.47 h | 4.43 h |  | 3.99 h | 6.67 ± 0.85 h | 3.28 h |  |  |  |  |
| MNINRDKIVQLVDTDTIENLTSALSQRLIADQLRLTTAESCTGGKLASALCAAEDTPKFYGAGFVTFTDQAKMKILSVSQQSLERYSAVSEKVAAEMATGAIERADADVSIAITGYGGPEGGEDGTPAGTVWFAWHIKGQNYTAVMHFAGDCETVLALAVRFALAQLLQLLL | 4.97 ± 0.3 h | 5.18 ± 0.69 h | 4.38 ± 0.19 h | 4.8 ± 0.062 h | 11.1 ± 3.5 h | 5.68 ± 0.57 h | 12.6 ± 0.67 h | 4.57 ± 0.048 h | 4.76 ± 0.46 h | 3.14 ± 0.69 h | 6.15 ± 0.4 h | 9.68 h |
| MKLAVYSTKQYDKKYLQQVNESFGFELEFFDFLLTEKTAKTANGCEAVCIFVNDDGSRPVLEELKKHGVKYIALRCAGFNNVDLDAAKELGLKVVRVPAYDPEAVAEHAIGMMMTLNRRIHRAYQRTRDANFSLEGLTGFTMYGKTAGVIGTGKIGVAMLRILKGFGMRLLAFDPYPSAAALELGVEYVDLPTLFSESDVISLHCPLTPENYHLLNEAAFEQMKNGVMIVNTSRGALIDSQAAIEALKNQKIGSLGMDVYENERDLFFEDKSNDVIQDDVFRRLSACHNVLFTGHQAFLTAEALTSISQTTLQNLSNLEKGETCPNELV | 4.95 ± 0.5 h | 5.26 ± 0.41 h | 4.57 ± 0.16 h | 4.64 ± 0.38 h | 7.53 ± 0.61 h | 5.67 ± 0.38 h | 12.3 ± 0.16 h | 5.65 ± 1.9 h | 4.53 ± 0.051 h | 3.08 ± 0.3 h | 5.97 ± 0.49 h | 11.3 ± 0.19 h |
| MKTKLMTLQDATGFFRDGMTIMVGGFMGIGTPSRLVEALLESGVRDLTLIANDTAFVDTGIGPLIVNGRVRKVIASHIGTNPETGRRMISGEMDVVLVPQGTLIEQIRCGGAGLGGFLTPTGVGTVVEEGKQTLTLDGKTWLLERPLRADLALIRAHRCDTLGNLTYQLSARNFNPLIALAADITLVEPDELVETGELQPDHIVTPGAVIDHIIVSQESK |  |  |  |  |  |  |  |  |  |  |  | 8.54 h |
| MQYPINEMFQTLQGEGYFTGVPAIFIRLQGCPVGCAWCDTKHTWEKLEDREVSLFSILAKTKESDKWGAASSEDLLAVIGRQGYTARHVVITGGEPCIHDLLPLTDLLEKNGFSCQIETSGTHEVRCTPNTWVTVSPKLNMRGGYEVLSQALERANEIKHPVGRVRDIEALDELLATLTDDKPRVIALQPISQKDDATRLCIETCIARNWRLSMQTHKYLNIA | 4.61 ± 0.46 h | 4.5 ± 0.086 h | 3.79 ± 0.57 h | 3.7 ± 0.29 h | 6.06 ± 0.13 h | 4.61 ± 0.56 h | 7.47 ± 0.8 h | 3.94 h | 3.81 ± 0.46 h | 2.309 ± 0.014 h | 4.33 ± 0.17 h | 6.66 ± 0.86 h |
| MTAPSQVLKIRRPDDWHLHLRDGDMLKTVVPYTSEIYGRAIVMPNLAPPVTTVEAAVAYRQRILDAVPAGHDFTPLMTCYLTDSLDPNELERGFNEGVFTAAKLYPANATTNSSHGVTSIDAIMPVLERMEKIGMPLLVHGEVTHADIDIFDREARFIESVMEPLRQRLTALKVVFEHITTKDAADYVRDGNERLAATITPQHLMFNRNHMLVGGVRPHLYCLPILKRNIHQQALRELVASGFNRVFLGTDSAPHARHRKESSCGCAGCFNAPTALGSYATVFEEMNALQHFEAFCSVNGPQFYGLPVNDTFIELVREEQQVAESIALTDDTLVPFLAGETVRWSVKQ | 5.58 ± 0.26 h | 5.46 ± 0.25 h | 4.78 ± 0.2 h | 5.06 ± 0.61 h | 9.47 ± 0.78 h | 6.06 ± 0.17 h | 13.6 ± 0.86 h | 5.17 ± 0.099 h | 5.194 ± 0.04 h | 2.85 ± 0.047 h | 5.64 ± 0.76 h | 8.19 ± 2.8 h |
